Data taken from patent US20100254992A1.
Values belong to the binder of their own block, whether it stands above or below them.

Experiments:
[1] = molecular target: Human Monocyte Chemoattractant Protein-1 (MCP-1) (human) (UniProt P13500); experiment: cell-based or functional assay
[2] = molecular target: Human Monocyte Chemoattractant Protein-1 (MCP-1) (human) (UniProt P13500); experiment: IGEN (BioVeris), MCP-1 Kd
[3] = molecular target: Human Monocyte Chemoattractant Protein-1 (MCP-1) (human) (UniProt P13500); experiment: 125I-MCP-1 binding to CCR2 on THP-1 cells, radioligand competition
[4] = molecular target: HuMCP-1-His6 (wild type) (human) (UniProt P13500); experiment: Biacore
Sequence of HuMCP-1-His6 (wild type) (human) (P13500 24-99 limits assumed): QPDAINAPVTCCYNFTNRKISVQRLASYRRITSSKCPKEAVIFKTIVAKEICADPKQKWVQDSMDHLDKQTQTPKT

[5] = molecular target: HuMCP-1-His6 Mutant-6 (66D → 66K) (human) (UniProt P13500); experiment: Biacore
Sequence of HuMCP-1-His6 Mutant-6 (66D → 66K) (human) (P13500 other isoform, or with tags, fused parts or gaps mutant, form in doubt): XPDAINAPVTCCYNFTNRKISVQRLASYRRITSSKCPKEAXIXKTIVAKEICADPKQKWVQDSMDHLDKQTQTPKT

[6] = molecular target: HuMCP-1-His6 (wild type) (human) (UniProt P13500); experiment: Biacore, C775 captured, MCP-1-His6 in solution
[7] = molecular target: HuMCP-1-His6 Mutant-1 (33SSK35 → 33NIQ35) (human) (UniProt P13500); experiment: Biacore, C775 captured, MCP-1-His6 in solution
Sequence of HuMCP-1-His6 Mutant-1 (33SSK35 → 33NIQ35) (human) (P13500 other isoform, or with tags, fused parts or gaps mutant limits assumed): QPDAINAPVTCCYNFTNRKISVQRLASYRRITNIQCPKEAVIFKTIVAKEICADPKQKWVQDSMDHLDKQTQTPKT

[8] = molecular target: HuMCP-1-His6 Mutant-2 (6NA7 → 6SI7) (human) (UniProt P13500); experiment: Biacore, C775 captured, MCP-1-His6 in solution
Sequence of HuMCP-1-His6 Mutant-2 (6NA7 → 6SI7) (human) (P13500 other isoform, or with tags, fused parts or gaps mutant limits assumed): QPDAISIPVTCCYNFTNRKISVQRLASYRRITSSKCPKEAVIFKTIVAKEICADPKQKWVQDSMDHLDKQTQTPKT

[9] = molecular target: HuMCP-1-His6 Mutant-3 (15FT16 → 15VI16) (human) (UniProt P13500); experiment: Biacore, C775 captured, MCP-1-His6 in solution
Sequence of HuMCP-1-His6 Mutant-3 (15FT16 → 15VI16) (human) (P13500 other isoform, or with tags, fused parts or gaps mutant limits assumed): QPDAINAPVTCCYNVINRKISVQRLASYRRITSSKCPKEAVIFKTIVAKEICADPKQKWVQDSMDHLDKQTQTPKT

[10] = molecular target: HuMCP-1-His6 Mutant-4 (29R → 29T) (human) (UniProt P13500); experiment: Biacore, C775 captured, MCP-1-His6 in solution
Sequence of HuMCP-1-His6 Mutant-4 (29R → 29T) (human) (P13500 other isoform, or with tags, fused parts or gaps mutant limits assumed): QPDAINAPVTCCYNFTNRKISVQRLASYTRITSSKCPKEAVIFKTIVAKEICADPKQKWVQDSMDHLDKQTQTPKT

[11] = molecular target: HuMCP-1-His6 Mutant-5 (46IV47 → 46KR47) (human) (UniProt P13500); experiment: Biacore, C775 captured, MCP-1-His6 in solution
Sequence of HuMCP-1-His6 Mutant-5 (46IV47 → 46KR47) (human) (P13500 other isoform, or with tags, fused parts or gaps mutant limits assumed): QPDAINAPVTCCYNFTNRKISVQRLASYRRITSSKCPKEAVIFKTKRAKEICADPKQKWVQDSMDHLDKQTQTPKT

[12] = molecular target: HuMCP-1-His6 Mutant-6 (66D → 66K) (human) (UniProt P13500); experiment: Biacore, C775 captured, MCP-1-His6 in solution
[13] = molecular target: HuMCP-1-His6 Mutant-7 (4AINA7 → 4SVSI7) (human) (UniProt P13500); experiment: Biacore, C775 captured, MCP-1-His6 in solution
Sequence of HuMCP-1-His6 Mutant-7 (4AINA7 → 4SVSI7) (human) (P13500 other isoform, or with tags, fused parts or gaps mutant limits assumed): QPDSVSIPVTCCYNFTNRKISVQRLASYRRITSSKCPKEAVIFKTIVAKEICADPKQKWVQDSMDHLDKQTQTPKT

[14] = molecular target: HuMCP-1-His6 Mutant-8 (4AINA7 → 4GGGG7) (human) (UniProt P13500); experiment: Biacore, C775 captured, MCP-1-His6 in solution
Sequence of HuMCP-1-His6 Mutant-8 (4AINA7 → 4GGGG7) (human) (P13500 other isoform, or with tags, fused parts or gaps mutant limits assumed): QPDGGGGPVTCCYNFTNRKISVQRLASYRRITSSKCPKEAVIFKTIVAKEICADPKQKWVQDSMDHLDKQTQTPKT

[15] = molecular target: HuMCP-1-His6 Mutant-9 (4AINA7 . . . 46IV47 → 4SVSI7 . . . 46KR47) (human); experiment: Biacore, C775 captured, MCP-1-His6 in solution
Sequence of HuMCP-1-His6 Mutant-9 (4AINA7 . . . 46IV47 → 4SVSI7 . . . 46KR47) (human) (chain, as listed by the source mutant limits assumed): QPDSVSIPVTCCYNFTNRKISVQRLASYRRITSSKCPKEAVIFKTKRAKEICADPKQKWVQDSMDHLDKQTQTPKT

[16] = molecular target: HuMCP-1-His6 Mutant-P8A (human) (UniProt P13500); experiment: Biacore, C775 captured, MCP-1-His6 in solution
Sequence of HuMCP-1-His6 Mutant-P8A (human) (P13500 other isoform, or with tags, fused parts or gaps limits assumed, stated change not applied): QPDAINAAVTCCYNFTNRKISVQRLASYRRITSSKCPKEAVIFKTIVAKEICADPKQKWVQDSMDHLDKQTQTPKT

[17] = molecular target: HuMCP-1-His6 Mutant-Y13A (human) (UniProt P13500); experiment: Biacore, C775 captured, MCP-1-His6 in solution
Sequence of HuMCP-1-His6 Mutant-Y13A (human) (P13500 24-99 Y36A limits assumed): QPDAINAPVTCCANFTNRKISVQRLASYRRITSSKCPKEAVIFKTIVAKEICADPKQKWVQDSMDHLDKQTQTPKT

Sequence of Human Monocyte Chemoattractant Protein-1 (MCP-1) (human) (P13500 24-99 limits assumed): as the sequence (P13500 24-99 limits assumed) above

Inhibition of Ca2+ Mobilization IC50 [1]: 71.5 nM | Kd [2]: 65 nM | IC50 [3]: 35.6 nM
B1: C775 Fab (reference Fab) (Fab, from another filing, V domains shown)
VH: QVQLKQSGAELVRPGASVKLSCKASGYTFTDYYINWVKQRPGQGLEWIARIYPGTGNTYYNENFKGKATLTAEKSSSTAYMQLSSLTSEDSAVYFCARSGSTVVGNYYGMDYWGQGTSVTVSS
VL: SIVMTQTPKFLLVSAGDRVSITCKASQSVSNDVAWYQQKPGQSPKLLIYYASNRYTGVPDRFTGSGYGTDFTFTISTVQAEDLAVYFCQQDYSSPWTFGGGTKLEIKR

Kd [4]: 3 nM | fold decrease in fold change in binding affinity against wild type MCP-1 [5]: 9 fold | Inhibition of Ca2+ Mobilization IC50 [1]: 62.3 nM | Kd [6]: 3.1 nM | koff [6]: 0.00503 s⁻¹ | kon [6]: 1.64e+06 M⁻¹ s⁻¹ | Kd [7]: 2 nM | koff [7]: 0.0034 s⁻¹ | kon [7]: 1.6e+06 M⁻¹ s⁻¹ | Kd [8]: 6.3 nM | koff [8]: 0.00548 s⁻¹ | kon [8]: 868000 M⁻¹ s⁻¹ | Kd [9]: 4.5 nM | koff [9]: 0.0074 s⁻¹ | kon [9]: 1.66e+06 M⁻¹ s⁻¹ | Kd [10]: 3 nM | koff [10]: 0.0027 s⁻¹ | kon [10]: 880000 M⁻¹ s⁻¹ | Kd [11]: 1.7 nM | koff [11]: 0.00278 s⁻¹ | kon [11]: 1.64e+06 M⁻¹ s⁻¹ | Kd [12]: 27.7 nM | koff [12]: 0.00541 s⁻¹ | kon [12]: 195000 M⁻¹ s⁻¹ | Kd [13]: 4.5 nM | koff [13]: 0.00327 s⁻¹ | kon [13]: 720000 M⁻¹ s⁻¹ | Kd [14]: 5.5 nM | koff [14]: 0.00947 s⁻¹ | kon [14]: 1.73e+06 M⁻¹ s⁻¹ | Kd [15]: 1.7 nM | koff [15]: 0.00531 s⁻¹ | kon [15]: 3.16e+06 M⁻¹ s⁻¹ | Kd [16]: 2.6 nM | koff [16]: 0.00448 s⁻¹ | kon [16]: 1.75e+06 M⁻¹ s⁻¹ | Kd [17]: 1.7 nM | koff [17]: 0.003 s⁻¹ | kon [17]: 1.79e+06 M⁻¹ s⁻¹ | IC50 [3]: 25.6 nM
B2: C775 (murine anti-human MCP-1 antibody, IgG) (antibody, from another filing, V domains shown)
VH: B1 VH
VL: B1 VL
